# According to PMC11642994, “AGC family kinase of Entamoeba histolytica: Decoding the members biochemically” (PLOS Pathogens, 2024):
# Substitutions are numbered along the chain they refer to. Numbers in names are those of the source. Entries after “also recorded” stand apart in the source; their conditions may differ. No end group written: not given here.
# T1: EhAGCK2 WT (Entamoeba histolytica AGC family kinase 2, EHI_053040), full-length recombinant His-tagged protein (Entamoeba histolytica, UniProt C4M3C2 1-434)
# T1 construct: source: E. coli C41(DE3), purified (Ni2+-NTA)
# T1 sequence: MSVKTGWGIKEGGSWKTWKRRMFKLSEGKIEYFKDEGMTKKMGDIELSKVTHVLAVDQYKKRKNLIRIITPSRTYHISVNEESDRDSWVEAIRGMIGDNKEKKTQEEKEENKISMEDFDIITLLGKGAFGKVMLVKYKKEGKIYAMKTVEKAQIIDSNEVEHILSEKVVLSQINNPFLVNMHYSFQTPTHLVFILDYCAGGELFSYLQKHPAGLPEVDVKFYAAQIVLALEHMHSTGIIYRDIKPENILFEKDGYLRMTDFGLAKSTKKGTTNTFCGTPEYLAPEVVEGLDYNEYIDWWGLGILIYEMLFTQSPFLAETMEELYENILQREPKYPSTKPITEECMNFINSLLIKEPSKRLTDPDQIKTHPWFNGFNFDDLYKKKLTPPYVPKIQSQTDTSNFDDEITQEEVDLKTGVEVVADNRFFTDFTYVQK
# T2: EhAGCK1 WT (Entamoeba histolytica AGC family kinase 1, EHI_188930), full-length recombinant His-tagged protein (Entamoeba histolytica, UniProt C4M2W0 1-433)
# T2 construct: also called His-EhAGCK1; source: E. coli C41(DE3), purified (Ni2+-NTA)
# T2 sequence: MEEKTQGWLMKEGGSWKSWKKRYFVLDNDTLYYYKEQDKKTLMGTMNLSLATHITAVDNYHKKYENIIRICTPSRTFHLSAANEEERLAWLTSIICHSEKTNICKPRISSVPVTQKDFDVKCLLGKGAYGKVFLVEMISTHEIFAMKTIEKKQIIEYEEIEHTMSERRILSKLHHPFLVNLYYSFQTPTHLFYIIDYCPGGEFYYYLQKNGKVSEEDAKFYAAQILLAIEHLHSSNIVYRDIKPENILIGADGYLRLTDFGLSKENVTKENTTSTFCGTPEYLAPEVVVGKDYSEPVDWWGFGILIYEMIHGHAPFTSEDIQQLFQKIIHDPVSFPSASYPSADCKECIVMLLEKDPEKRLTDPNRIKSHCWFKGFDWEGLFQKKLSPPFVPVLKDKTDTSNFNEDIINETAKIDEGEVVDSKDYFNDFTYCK
# B1: KDD1: kinase-dead domain EhAGCK1 (K147A and D241A) (protein)
# chain: T2 sequence with K147A, D241A
# modifications: left off: His tag, end not stated, kept
# B2: EhAGCK2 WT: recombinant full-length wild-type His-tagged AGC family kinase 2 of E. histolytica (protein)
# chain: T1 sequence
# modifications: left off: His tag, end not stated, kept
# notes: recombinant full-length wild-type His-tagged AGC family kinase 2 of E. histolytica
# How the values were obtained:
# EhAGCK1 WT = EhAGCK1 WT (Entamoeba histolytica, UniProt C4M2W0); experiment: Microscale Thermophoresis (MST), EhAGCK1 WT; format: binding
# Protocol: Microscale Thermophoresis (MST) was performed in the presence of full-length and kinase-dead EhAGCK1 and EhAGCK2 proteins, along with HsGSK3, EhRhoGEF, and EhCoactosin peptide substrates. Proteins were labelled using a His-tag labelling kit, RED-tris-NTA 2nd Generation (Nano Temper Technologies, San Francisco, CA, USA). A brief labelling reaction was performed in a buffer containing (50 mM Tris-Cl pH 8, 150 mM NaCl, 1 mM β-ME and 5% glycerol) with a protein concentration of 20 nM and a molar dye: protein ratio of approximately 3:1. The mixture was kept at room temperature for 30 min, followed by centrifugation at 15000 g for 10 min at 4°C. A series of 16 1:1 dilutions were prepared using the same buffer, resulting in peptide concentrations ranging from 500 μM to […]. Following a 10 min incubation, the samples were loaded into standard monolith NT.115 capillaries from Nano Temper Technologies. […] Data from three independently pipetted measurements were analysed using MO. […]
# The kinase assay data presented here are the mean ± standard error (SE) of n≥3 of three independent experiments. The Km and Vmax were determined from a direct, nonlinear fit of [V] versus [S] plots using the Michaelis-Menten equation: V=Vmax[S]/Km+[S] using the GraphPad Prism 9.0 software package (GraphPad Software Inc., CA, USA). […]
# [1] = biological target: T1, EhAGCK2 WT (Entamoeba histolytica AGC …); experiment: MST; His-tagged kinase labelled with RED-tris-NTA 2nd Generation dye, kept constant (50 nM by the legend); unlabelled peptide in 16 1:1 dilutions, 500 uM to 153 nM as printed; 50 mM Tris-Cl pH 8, 150 mM NaCl, 1 mM beta-ME, 5% glycerol; 25 C; Monolith NT.115, 50% LED, medium MST power; settings: both partners purified
# autophosphorylation = experiment: ATP biotinylation kinase assay (autophosphorylation, SA-HRPO western blot); format: biochemical, Entamoeba histolytica; settings: 4 μM kinase (EhPDK1 2 μM), 20 μM biotin-labelled ATP, 40 mM Tris-Cl pH 7.8, 10 mM MgCl2, 2 mM DTT, 30°C, 1 h
# Protocol: ATP biotinylation assays were performed in the presence of 4 μM of EhAGCK1 (WT, T275D, and KDD1) and EhAGCK2 (WT, T274D, and KDD2) along with 2 μM of wild-type EhPDK1 in the presence of activation buffer 40 mM Tris-Cl pH 7.8, 10 mM MgCl2, and 2 mM DTT and incubated at 30°C for 1 h. The reaction was triggered by adding 20 μM biotin-labelled ATP (Catalogue NU-970-BIO, Jena Bioscience). 20 μl of the reaction was collected at the indicated time point and quenched by the addition of 4x SDS-loading dye. After gel electrophoresis, phosphorylated proteins were visualized by immunoblotting using HRPO-conjugated streptavidin (Invitrogen).
# ATP biotinylated protein samples were separated by SDS-PAGE and then electro-transferred to PVDF membrane (Pall life sciences). The membrane was blocked overnight by 5% BSA (G-Biosciences) in TBS-T (TBS with 0.1% Tween 20) and stained with Ponceau S. This blocking process was done overnight at 4°C. The membrane was then incubated with 1:1000 dilution of HRPO-conjugated streptavidin (Invitrogen) at room temperature. Following antibody incubation, the blots were carefully cleaned with TBS-T. Band detection was carried out with a Millipore ECL kit.
# HsGSK3 peptide = experiment: ADP-Glo kinase activity of kinase variants with human GSK3 peptide in MgCl2 and MnCl2 buffers; format: biochemical; settings: for kinase activity with HsGSK3 peptide in presence of Mn2+: Mn2+ present
# Protocol: The phosphorylation activity of kinases was measured using the ADP-Glo kinase assay kit according to the manufacturer’s protocol with few modifications (Promega, Madison, WI, Catalogue number V6930). Assays were performed in a Corning 384-well low-volume white round bottom polystyrene NBS microplate with a total volume of 32 μl in the ratio of 1:1:2, corresponding to the kinase reaction, ADP-Glo reagent, and detection reagent, respectively. The kinase reaction was performed in an 8 μl volume containing 4 μl of purified protein kinases, 2 μl of peptide substrate, and 2 μl of ATP (Promega, Madison, WI). The working concentration of all the kinase reaction components was prepared in the standard kinase assay buffer (40 mM Tris-Cl pH 7.5, 20 mM MgCl2, 2 mM DTT). Along with other controls, only buffer-negative controls without protein kinase, substrate, and ATP were included in the kinase assay. Kinase assay reactions in each well were started immediately by adding ATP. The reactions were allowed to continue for 1 h at 30°C in the incubator chamber without shaking. The kinase assay was quenched by adding 8 μl of ADP-Glo reagent in each well before adding ADP-Glo reagent. The reaction plate was incubated for 5 min at room temperature. Termination reactions were allowed to proceed for 40 min at room temperature. ADP-Glo reagent, in addition to quenching the reaction, scavenges the unconsumed ATP from the reaction. In the final step of the ADP-Glo kinase assay, 16 μl of kinase detection reagent was added to each well and incubated for 40 min to simultaneously convert ADP to ATP and allow the newly synthesised ATP to be measured using a luciferase/luciferin reaction. The luminescent signal generated was measured using a SpectraMax i3x Multi-Mode Microplate Reader (Molecular Devices), and it was proportional to the ADP concentration produced and correlated with the kinase activity.
# The kinase assay data presented here are the mean ± standard error (SE) of n≥3 of three independent experiments. The Km and Vmax were determined from a direct, nonlinear fit of [V] versus [S] plots using the Michaelis-Menten equation: V=Vmax[S]/Km+[S] using the GraphPad Prism 9.0 software package (GraphPad Software Inc., CA, USA). Additionally, the Microscale Thermophoresis (MST) experiments were conducted using the Monolith NT.11.5 instrument, with triplicate runs. Statistical comparisons were made using Student’s t-test. Differences in mean values were considered significant at *p-value≤0.05, **p-value≤0.01, ***p-value≤0.001, ****p-value≤0.0001.
# [2] = biological target: T2, EhAGCK1 WT (Entamoeba histolytica AGC …); experiment: MST; His-tagged kinase labelled with RED-tris-NTA 2nd Generation dye, kept constant (50 nM by the legend); unlabelled peptide in 16 1:1 dilutions, 500 uM to 153 nM as printed; 50 mM Tris-Cl pH 8, 150 mM NaCl, 1 mM beta-ME, 5% glycerol; 25 C; Monolith NT.115, 50% LED, medium MST power; settings: both partners purified
# [3] = 50 μM HsGSK3 peptide, 250 μM ATP, 60 min, 30°C
molecule,measurement,setting,value
"GRPRTTSFAESCK [HsGSK3, reference compound]",Kd,EhAGCK1 WT,2610 nM
"KAGGADYSFNTTSN [EhCoactosin peptide (from Coactosin, EHI_168340)]",Kd,[1],413 nM
B1,autophosphorylation activity (words),autophosphorylation,remain inactive
same,kinase activity with HsGSK3 peptide in presence of Mn2+,HsGSK3 peptide; [3],remained inactive
"SSPSSVPAAQSTTPVNVPK [EhRhoGEF peptide (from RhoGEF, EHI_008090)]",Kd,[2],307 nM
B2,autophosphorylation activity (words),autophosphorylation,exhibited autophosphorylation activity
same,autophosphorylation activity (words),autophosphorylation; listed as EhAGCK2,able to accept biotin-ATP as substrate and underwent autophosphorylation
same,kinase activity with HsGSK3 peptide in Mg2+ / without Mn2+ (words),"HsGSK3 peptide; Mg2+, 50 μM HsGSK3 peptide, kinase 0-80 μM, 250 μM ATP",phosphorylates HsGSK3 peptide
same,ion preference for kinase activity,"HsGSK3 peptide; MgCl2 versus MnCl2 buffer, HsGSK3 peptide",phosphorylates the peptide substrates in both MgCl2 and MnCl2 buffers; also recorded: optimal activity with Mg^2+
same,kinase activity with HsGSK3 peptide in presence of Mn2+,HsGSK3 peptide; [3],"showed no increment, in fact, a small decrease in the average kinase activity"
same,Fold change (MgCl2: MnCl2),"HsGSK3 peptide; S1 Table, kinase activity in MgCl2 and MnCl2 buffers, 50 μM HsGSK3 peptide, 250 μM ATP, 60 min, 30°C",0.63
